{"source": "paper PMC5139991", "about": "“SEC-SANS: size exclusion chromatography combined in situ with small-angle neutron scattering1” (Journal of Applied Crystallography, 2016)", "proteins": {"B1": {"name": "Plasmodium falciparum Sir2a (enzyme, UniProt Q8IE47 1-273, looked up)", "chain": "MGNLMISFLKKDTQSITLEELAKIIKKCKHVVALTGSGTSAESNIPSFRGSSNSIWSKYDPRIYGTIWGFWKYPEKIWEVIRDISSDYEIEINNGHVALSTLESLGYLKSVVTQNVDGLHEASGNTKVISLHGNVFEAVCCTCNKIVKLNKIMLQKTSHFMHQLPPECPCGGIFKPNIILFGEVVSSDLLKEAEEEIAKCDLLLVIGTSSTVSTATNLCHFACKKKKKIVEINISKTYITNKMSDYHVCAKFSELTKVANILKGSSEKNKKIM", "notes": "Sir2a of Plasmodium falciparum, codon-optimized gene PF3D7_1328800 cloned into pET-28a; printed size 34 kDa; Protonated protein; The His tag is inferred from pET-28a and the TALON purification; removal of the tag is not mentioned; source: E. coli BL21 DE3, purified (HiTrap TALON, gel filtration)"}}, "biological_target": "the molecule itself", "assay": "AUC; ultracentrifugation of Sir2a; no details given (to be detailed in a later publication)", "data": [{"protein": "B1", "values": [{"measurement": "stoichiometry N", "result": 3}]}]}
